Measured values: paper PMC7904446 (Cell Host & Microbe, 2021)

Legend:
[1] = target: T1, SARS-CoV-2 spike trimer protein (SARS-CoV-2, Wuhan-Hu-1 reference, UniProt P0DTC2); assay: SPR
[2] = target: T1, SARS-CoV-2 spike trimer protein; assay: cell-based or functional assay

B1: ZDY28 human monoclonal antibody, IgG1 (antibody, V domains shown)
VH: EVQLVQSGGGVVQPGRSLRLSCAASGFTFSSYGMHWVRQAPGKGLEWVAVISYDGSNKYYADSVKGRFTISRDNSKNTLYLQMNSLRAEDTAVYYCASRSTVVPAAIFAFDIWGQGTMVTVSS
VL: not shown
- Kd [1]: 10.2 nM
- pseudovirus neutralisation in 293T-ACE2 cells, IC90; blocks S binding to ACE2 [2]: 7.47 µg/mL

B2: ZDY95 human monoclonal antibody, IgG1 (antibody, V domains shown)
VH: EVQLVQSGGGVVQPGRSLRLSCAASGFTFSSYGMHWVRQAPGKGLEWVAVISYDGSNKYYADSVKGRFTISRDNSKNTLYLQMNSLRAEDTAVYYCASRSTVVPAAIFAFDIWGQGTMVTVSS
VL: not shown
- Kd [1]: 15 nM
- pseudovirus neutralisation in 293T-ACE2 cells, IC90; blocks S binding to ACE2 [2]: 13.3 µg/mL

B3: ZDY49 human monoclonal antibody, IgG1 (antibody, V domains shown)
VH: EVQLVESGGGVVQPGRSLRLSCAASGFTFSSYGMHWVRQAPGKGLEWVAVISYDGSNKYYADSVKGRFTISRDNSKNTLYLQMNSLRAEDTAVYYCASRSTVVPAAIFAFDIWGQGTMVTVSS
VL: not shown
- Kd [1]: 24.4 nM
- pseudovirus neutralisation in 293T-ACE2 cells, IC90; blocks S binding to ACE2 [2]: 17.1 µg/mL

B4: ZDY20 human monoclonal antibody, IgG1 (antibody, V domains shown)
VH: EVQLVETGGGLIQPGGSLRLSCAASGITVSSNYMSWVRQAPGKGLEWVSVIYSGGSTYYADSVKGRFTISRDNSKNTLYLQMNSLRAEDTAVYYCAREGLGDGYNAIAGLGFDLWGRGTLVTVSS
VL: DIVMTQSPSSLSASVGDSVTITCQASQDINNYLNWYQQKPGRAPELLINDASNLEAGVPSRFSGSGSGTDFTLTISSLQTEDFATYYCQQYGSLPYTFGQGTKLDIR
- Kd [1]: 8.8 nM
- neutralisation of live SARS-CoV-2, IC50; blocks S binding to ACE2 [2]: 0.35 µg/mL
- pseudovirus neutralisation in 293T-ACE2 cells, IC90; blocks S binding to ACE2 [2]: 1.24 µg/mL
